To fix the notation:
B1: Azoarcus group I ribozyme (parent)
chain: GUGCCUUGCGCCGGGAAACCACGCAAGGGAUGGUGUCAAAUUCGGCGAAACCUAAGCGCCCGCCCGGGCGUAUGGCAACGCCGAGCCAAGCUUCGGCGCCUGCGCCGAUGAAGGUGUAGAGACUAGACGGCACCCACCUAAGGCAAACGCUAUGGUGAAGGCAUAGUCCAGGGAGUGGCGAAAGUCACACAAACCGG

The values below come from the RNAGym collection of RNA variant scans (doi:10.1093/molbev/msab373).

Variants of B1 are the subject of this series. The series can be described thus: reverse-splicing fitness (ratio to wild type); higher = more active; in vitro selection; Mg2+ level not given. The method, boiled down: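 An in vitro group I ribozyme library with randomized positions was T7-transcribed and gel-purified. In triplicate, 10 pmol RNA in EPPS pH 7.5 was reacted with 50 pmoles of a 30-nt RNA substrate for 1 h at 37 °C across several added MgCl2 levels (1–48 mM), then stopped with EDTA. Products were reverse transcribed from a substrate-complementary primer, PCR-amplified and sequenced (HiSeq 4000). Fitness is a variant's read proportion after selection over that before, normalised to wild type.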
For the variant GUGCCUUGCGCCGGGAAACCACGCAAGGGAUGGUGUCAAAUUCGGCGAAACCUAAGCGCCCGCCCGGGCGUAUGGCAACGCCGAGCCAAGCUUCGGCGCCUGCGCCGAUGGAGGUGUAGGGACUAGACGGCACCCACCUAAGGCAAACGAUAUGGUGAAGGCAUAGUCCAGGGAGGGGCGAAAGUCACACAAACCGG, the reverse-splicing fitness turned out to be 0.00663.
GUGCCUUGCGCCGGGAAACCACGCAAGGGAUGGUGUCAAAUUCGGCGAAACCUAAGCGCCCGCCCGGGCGUAUGGCAACGCCGAGCCAAGCUUCGGCGCCUGCGCCGAUGGAGGUGUAGGGACUAGACGGCACCCACCUAAGGCAAACGAUAUGGUGAAGGCAUAGUCCAGGGAGAGGCGAAAGUCACACAAACCGG: the reverse-splicing fitness was 0.0188.
With GUGCCUUGCGCCGGGAAACCACGCAAGGGAUGGUGUCAAAUUCGGCGAAACCUAAGCGCCCGCCCGGGCGUAUGGCAACGCCGAGCCAAGCUUCGGCGCCUGCGCCGAUGGAGGUGUAGGGACUAGACGGCACCCACCUAAGGCAAACGAUAUGGUGAAGGCAUAGUCCAGGGAGUGGCGAAAGUCACACAAACCGG the figure was 0.0324; with GUGCCUUGCGCCGGGAAACCACGCAAGGGAUGGUGUCAAAUUCGGCGAAACCUAAGCGCCCGCCCGGGCGUAUGGCAACGCCGAGCCAAGCUUCGGCGCCUGCGCCGAUGGAGGUGUAGGGACUAGACGGCACCCACCUAAGGCAAACGGUAUGGUGAAGGCAUAGUCCAGGGAGUGGCGAAAGUCACACAAACCGG, 0.0248; with GUGCCUUGCGCCGGGAAACCACGCAAGGGAUGGUGUCAAAUUCGGCGAAACCUAAGCGCCCGCCCGGGCGUAUGGCAACGCCGAGCCAAGCUUCGGCGCCUGCGCCGAUGGAGGUGUAGGGACUAGACGGCACCCACCUAAGGCUAACGCUAUGGUGAAGGCAUAGUCGAGGGAGCGGCGAAAGUCACACAAACCGG, 0.106.
For the variant GUGCCUUGCGCCGGGAAACCACGCAAGGGAUGGUGUCAAAUUCGGCGAAACCUAAGCGCCCGCCCGGGCGUAUGGCAACGCCGAGCCAAGCUUCGGCGCCUGCGCCGAUGGAGGUGUAGGGACUAGACGGCACCCACCUAAGGCUAACGCUAUGGUGAAGGCAUAGUCGAGGGAGGGGCGAAAGUCACACAAACCGG, the reverse-splicing fitness stood at 0.00712.
For GUGCCUUGCGCCGGGAAACCACGCAAGGGAUGGUGUCAAAUUCGGCGAAACCUAAGCGCCCGCCCGGGCGUAUGGCAACGCCGAGCCAAGCUUCGGCGCCUGCGCCGAUGGAGGUGUAGGGACUAGACGGCACCCACCUAAGGCAAACGAUAUGGUGAAGGCAUAGUCGAGGGAGAGGCGAAAGUCACACAAACCGG, the reverse-splicing fitness turned out to be 0.0259.
In the case of GUGCCUUGCGCCGGGAAACCACGCAAGGGAUGGUGUCAAAUUCGGCGAAACCUAAGCGCCCGCCCGGGCGUAUGGCAACGCCGAGCCAAGCUUCGGCGCCUGCGCCGAUGGAGGUGUAGGGACUAGACGGCACCCACCUAAGGCAAACGAUAUGGUGAAGGCAUAGUCGAGGGAGCGGCGAAAGUCACACAAACCGG, the reverse-splicing fitness was 0.0343.
Regarding GUGCCUUGCGCCGGGAAACCACGCAAGGGAUGGUGUCAAAUUCGGCGAAACCUAAGCGCCCGCCCGGGCGUAUGGCAACGCCGAGCCAAGCUUCGGCGCCUGCGCCGAUGGAGGUGUAGGGACUAGACGGCACCCACCUAAGGCAAACGAUAUGGUGAAGGCAUAGUCGAGGGAGGGGCGAAAGUCACACAAACCGG, the reverse-splicing fitness was 0.00566.
As for GUGCCUUGCGCCGGGAAACCACGCAAGGGAUGGUGUCAAAUUCGGCGAAACCUAAGCGCCCGCCCGGGCGUAUGGCAACGCCGAGCCAAGCUUCGGCGCCUGCGCCGAUGGAGGUGUAGGGACUAGACGGCACCCACCUAAGGCAAACGAUAUGGUGAAGGCAUAGUCAAGGGAGUGGCGAAAGUCACACAAACCGG, the reverse-splicing fitness is 0.0242.
With GUGCCUUGCGCCGGGAAACCACGCAAGGGAUGGUGUCAAAUUCGGCGAAACCUAAGCGCCCGCCCGGGCGUAUGGCAACGCCGAGCCAAGCUUCGGCGCCUGCGCCGAUGGAGGUGUAGGGACUAGACGGCACCCACCUAAGGCAAACGAUAUGGUGAAGGCAUAGUCUAGGGAGUGGCGAAAGUCACACAAACCGG, the reverse-splicing fitness was 0.0298.
With GUGCCUUGCGCCGGGAAACCACGCAAGGGAUGGUGUCAAAUUCGGCGAAACCUAAGCGCCCGCCCGGGCGUAUGGCAACGCCGAGCCAAGCUUCGGCGCCUGCGCCGAUGGAGGUGUAGGGACUAGACGGCACCCACCUAAGGCAAACGAUAUGGUGAAGGCAUAGUCGAGGGAGUGGCGAAAGUCACACAAACCGG the figure was 0.0355; with GUGCCUUGCGCCGGGAAACCACGCAAGGGAUGGUGUCAAAUUCGGCGAAACCUAAGCGCCCGCCCGGGCGUAUGGCAACGCCGAGCCAAGCUUCGGCGCCUGCGCCGAUGGAGGUGUAGGGACUAGACGGCACCCACCUAAGGCUAACGCUAUGGUGAAGGCAUAGUCUAGGGAGCGGCGAAAGUCACACAAACCGG, 0.093.
Take GUGCCUUGCGCCGGGAAACCACGCAAGGGAUGGUGUCAAAUUCGGCGAAACCUAAGCGCCCGCCCGGGCGUAUGGCAACGCCGAGCCAAGCUUCGGCGCCUGCGCCGAUGGAGGUGUAGGGACUAGACGGCACCCACCUAAGGCUAACGCUAUGGUGAAGGCAUAGUCUAGGGAGGGGCGAAAGUCACACAAACCGG: the reverse-splicing fitness came to 0.0103.
With GUGCCUUGCGCCGGGAAACCACGCAAGGGAUGGUGUCAAAUUCGGCGAAACCUAAGCGCCCGCCCGGGCGUAUGGCAACGCCGAGCCAAGCUUCGGCGCCUGCGCCGAUGGAGGUGUAGGGACUAGACGGCACCCACCUAAGGCUAACGCUAUGGUGAAGGCAUAGUCUAGGGAGAGGCGAAAGUCACACAAACCGG the figure was 0.0839.
